Data from the supplement of paper PMC10567573.
± gives the standard deviation.

Assay: protein stability index of a GFP-peptide fusion (GPS, HEK-293T) (PSI 1-6); higher = more stable
[1] = treatment: DMSO, c terminus: a fixed tail appended
[2] = treatment: MLN4924 1 uM, 8 h, c terminus: a fixed tail appended
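Also: 24-mer peptide tiles fused after GFP, lentivirally expressed, FACS-sorted into six equal bins by GFP/DsRed ratio, decoded by Illumina sequencing, PSI is the read-weighted mean bin number.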

Sequence	protein stability index [1]	protein stability index [2]	protein stability index (treatment: DMSO, c terminus: native)	protein stability index (treatment: MLN4924 1 uM, 8 h, c terminus: native)
FNNGEYAEAEALYSAYIRRCACAA [TTC32]	2.39 ± 0.19	2.64 ± 0.46		
QEHPRQQLATSSFLLFLLTGIVSV [MOSPD3]	3.32 ± 0.49	2.83 ± 0.096		
MEVLAAETTSQQERLQAIAEKRKR [PALM]	5.15 ± 0.27	5.23 ± 0.32		
DNVPDPKDVKERFSGSLVAALSAT [TMEM175]	4.42 ± 0.34	4.44 ± 0.34		
FGSLPSPKELSSFSFSMKGHEKTA [DLC1]	3.53 ± 0.19	3.74 ± 0.25		
GADPDSRDFDNNTPLHIAAQNNCP [FEM1A]	4.96 ± 0.39	5.18 ± 0.88		
VMAYDRYMAICKPLHELITMNRRV [OR4A15]	2.25 ± 0.35	2.23 ± 0.37		
ELDDTLKYSFLQFDPAPRRGEPHV [PPP2CA]	3.2 ± 0.32	3.41 ± 0.31		
ALAAIYEEKEAWYREESDSLGQDL [DAPK3]		4.6 ± 0.5		
KGEEVTPISAIRHEGKTDSERTDT [EPB41L3]	5.44 ± 0.45	5.43 ± 0.3		
ENEKLHQRVEQLTRDLAGLRQFFK [CEBPD]	3.01 ± 1.3	2.55 ± 0.28		
IIIYLGPMVLMIIVMCVQIKCFHE [CDS2]	3.13 ± 0.53	3.19 ± 0.24		
SGTIMKIGIEAKNLASYDVCSILL [MCOLN1]	2.87 ± 0.55	2.64 ± 0.37		
LGETPENSNLEEPLNPKPHKKKSP [ZNF449]	5.41 ± 0.38	5.47 ± 0.12		
LERQNQEYQVLLDVKARLEGEIAT [KRT36]	3.93 ± 0.077	4.02 ± 0.2		
EARGIRAPPLPDSPQPLASSPGPW [FCHO1]	4.34 ± 0.28	4.31 ± 0.15		
ESRLKRSNPLAREIFRRHFRQLCY [ZSCAN9]	2.15 ± 0.25	2.34 ± 0.1		
ADSGRYRASPTRTAPLPMPEGPEP [ELOA2]	4.84 ± 0.32	4.96 ± 0.28		
RIHTEEKPYKCQQCDKRFRWSSDL [ZNF75A]	3 ± 0.2	2.94 ± 0.091		
HYPFLGAMGDHSKKKPGTAMCVGC [ISL2]	2.86 ± 0.34	3.25 ± 0.43		
TLRQKTVDWRRVSRLQEDPEGTEN [SLA]	4.87 ± 0.27	4.79 ± 0.52		
VDRWPAPVPGKTLHLPIMGVVMKV [DENND6A]	2.63 ± 0.39	2.4 ± 0.36		
SSSFTSIASEWFLIANRSYKVSAA [SLC22A15]	2.26 ± 0.47	2.42 ± 0.31		

Sequence	protein stability index [1]	protein stability index [2]	protein stability index (treatment: DMSO, c terminus: native)	protein stability index (treatment: MLN4924 1 uM, 8 h, c terminus: native)
APLSNGLCCAFSTDGSVLAAGTHD [WSB1]	4.06 ± 0.43	3.9 ± 0.24		
REDKATIKCETSPPSSPRTLRLEK [PPFIA4]	5.51 ± 0.18	5.45 ± 0.15		
SQLPQVLHVSLGQKLVAAYVLGLL [MOSPD3]	3.26 ± 0.94	2.75 ± 1.2		
PTLGGGFHVNLGKESRAQTLQNGR [BRF1]	4.04 ± 0.47	4.14 ± 0.33		
SEEAPSTSGMGFHAPKIGSNGVEM [SDE2]	4.92 ± 0.17	4.89 ± 0.1		
SPSPSSRVTVSRASSSRSVRTTRG [LMNB1]	5.08 ± 0.27	5.12 ± 0.09		
CDDSFTPQEKLWQQLRRGRYVEFN [CPOX]	3.08 ± 0.14	2.89 ± 0.3		
EQRDQLERTKSRLVNTSENLSKSR [VTI1B]	5.18 ± 0.31	5.01 ± 0.18		
VAVCPIPAAGLDVTQPCGDCGTIQ [HDAC6]	3.46 ± 0.24	3.81 ± 0.41		
IPSTQFDAAHPTNVQRLAEPSQML [CTNNB1]	4.24 ± 0.18	4.34 ± 0.09		
LHYFPFFLMGRVLYFHHYFPAMLF [POMT2]	3.09 ± 0.93	2.58 ± 0.52		
PDDSTSEDGIHTLTCALMLLNTDL [PSD2]	3.12 ± 0.27	3.1 ± 0.34		
AVNRARRPLARPIKPNEILPPEKG [RHOBTB2]	4.24 ± 0.12	4.27 ± 0.12		
GFAFITFENPADAKNAAKDMNGKS [RBMY1A1]	3.55 ± 0.46	3.68 ± 0.36		
NNFSPLHLAVDKNTTCVGRYPVCK [FEM1C]	3.42 ± 0.15	3.52 ± 0.12		
SDTPYDSSASYEKENEMMKSHVMD [IKZF1]	5.2 ± 0.31	5.13 ± 0.2		
SNQEVLQSCLLVIFATKPHVLPAV [PYCR3]	3.34 ± 0.4	3.01 ± 0.34		
YKKAVGLKLKQEKKEAYLKLKQG [WDR88]			2.81 ± 0.4	3.13 ± 0.3
AVRCASGRCTVRDFIHRHCQDQNV [SDE2]	2.59 ± 0.41	2.39 ± 0.5		
HDKIRPISSIGQVQSYMEHYCNSS [SPACA9]	3.6 ± 0.4	3.72 ± 0.18		
CPVEYNNDTNSFTVDCEPSDLFRL [CDS2]	3.94 ± 0.21	4.03 ± 0.17		
LAATQGLAHMIAECKKLFQVPEEM [DLC1]	2.52 ± 0.33	2.47 ± 0.37		
KDIDMFSMCEHHLVPFVGKVHIGY [GCH1]	2.34 ± 0.76	2.27 ± 0.36		

Sequence	protein stability index [1]	protein stability index [2]	protein stability index (treatment: DMSO, c terminus: native)	protein stability index (treatment: MLN4924 1 uM, 8 h, c terminus: native)
YEYDHWDAAIHGFRETEKSRWSEA [ALKBH7]	3.64 ± 0.38	3.73 ± 0.22		
GSSDASGSYSSTMNGHQNGLDSPP [ESRRG]	4.93 ± 0.13	4.99 ± 0.27		
FCDMDKSLLCLLCSNSQEHGAHKH [TRIM43]	2.49 ± 0.37	3 ± 0.67		
SKYENYFSASERLSLKRELSWYRG [HESX1]	2.44 ± 0.26	2.31 ± 0.33		
DQFTQVFLESQGIELNPPEKMALD [EFHC1]	4.662 ± 0.027	4.78 ± 0.24		
KKINTEGDVPPSMSGSCAVCVDRV [KLHDC2]	4.18 ± 0.34	4.29 ± 0.17		
AHEYIFCFVLGFFYPVMLILFLVI [SOAT2]	2.98 ± 0.56	3.03 ± 0.23		
GLGNTWPGASGSAQSLDRLGIMGA [ATP23]	3.3 ± 0.24	3.48 ± 0.3		
SRNFIERNHMENGGDHRYVNNYTN [TRIM29]	3.46 ± 0.22	3.57 ± 0.18		
AEKCLDFLVDMFNDEIEEVRLQSI [INTS4]	2.94 ± 0.16	2.94 ± 0.4		
EMREIRRKLRELQLRNCLRILMGE [BEX3]	2.35 ± 0.38	2.28 ± 0.38		
EQHVHNEKSVLKEVSHPFLIRLFW [PRKX]	2.25 ± 0.25	2.26 ± 0.081		
PEGGLEEPDALDDSLTSLQWLQEF [FOXJ1]	4.64 ± 0.17	4.53 ± 0.3		
CTRFTDEYQLFEELGKGAFSVVRR [CAMK2D]	2.81 ± 0.31	2.84 ± 0.39		
MGTRDDEYDYLFKVVLIGDSGVGK [RAB11A]	2.27 ± 0.41	2.44 ± 0.35		
TQSVMGFDPLPPSDTIYSYVRPER [TCF25]	3.52 ± 0.32	3.73 ± 0.12		
DEKINIYCLTCEVPTCSMCKVFGI [TRIM63]	2.43 ± 0.14	2.45 ± 0.32		
AGSVFGGGFGGGVGGGFGGGFGGG [KRT15]	2.56 ± 0.23	2.65 ± 0.21		
CVKLCTGHEYAAKIINTKKLSARD [CAMK2B]	3.14 ± 0.18	3.18 ± 0.28		
VALLTGKFSNIVDKFVIVDCRYPY [CDC25B]	2.45 ± 1.7	2.59 ± 1.2		
EMQQQMSLGELCHPVPLSFEPVKS [TRIM14]	3.62 ± 0.22	4.05 ± 0.31		
FMECLVDARMLDHLTKKDLRVHLK [PPFIA4]	2.4 ± 0.32	2.67 ± 0.24		
TLHNLSHHREGLLAIFKSGGIPAL [CTNNB1]	2.4 ± 0.11	2.38 ± 0.24		

Sequence	protein stability index [1]	protein stability index [2]	protein stability index (treatment: DMSO, c terminus: native)	protein stability index (treatment: MLN4924 1 uM, 8 h, c terminus: native)
GGEMSPQVETSIEGTIPFSKPVKV [INTS4]	4.77 ± 0.2	4.76 ± 0.17		
GVPGQPLNFKAEPESETSILLSWT [PTPRD]	2.83 ± 0.27	2.98 ± 0.49		
AHVGMELQLKQELAMLNAVTEDLR [SCARA5]	3.27 ± 0.27	3.16 ± 0.45		
EPDNWMKEVMLFGHGTRKRVPLGR [RSAD1]	3.69 ± 0.29	3.32 ± 0.15		
RISNPSDDNSCEDLEEERREEEEK [PCMTD2]	5.59 ± 0.099	5.704 ± 0.05		
SGKSEISELRRTMQALEIELQSQL [KRT17]	3.58 ± 0.35	3.68 ± 0.15		
IVTWFMLLYAQGLLAIQFLEFFYG [SLC19A2]	3.28 ± 0.52	3.18 ± 0.46		
METGRWKKINTEGDVPPSMSGSCA [KLHDC2]	4.01 ± 0.34	4.21 ± 0.097		
REEEEKTPPETKPDPPVNFLRQKV [PCMTD2]	5.34 ± 0.26	5.29 ± 0.087		
EGCTGALHILARDVHNRIVIRGLN [CTNNB1]	2.65 ± 0.23	2.71 ± 0.17		
DCGPSRADRCSPKEDQAWDGASQD [FBXO34]	5.37 ± 0.24	5.25 ± 0.28		
QLKKCETRKLSPGKKRCKDIKRLL [SMG5]	3.32 ± 0.51	3.22 ± 0.18		
ALSLIRFPLMTIEEFAAGPAQSGI [BTBD1]	2.09 ± 0.35	2.04 ± 0.13		
GIPKGVMLSHDNITWIAGAVTKDF [ACSBG2]	2.67 ± 0.15	2.74 ± 0.15		
SWNVAVKFLMARKFDVLRAIELFH [PTPN9]	2.18 ± 0.25	2.31 ± 0.6		
EEEGFGSSSPVKSPAAPYFLGSSF [WEE1]	3.73 ± 0.18	3.77 ± 0.065		
ESDTDIYETVAAATSESTTVEPGK [DRICH1]	5.66 ± 0.14	5.6 ± 0.2		
DFSGLTLDGALRTFLKAFPLMGET [PSD2]	1.91 ± 0.24	2.05 ± 0.34		
HFLSKMPEAEENKQIIRKHAQTFV [CCND1]	3.39 ± 0.21	3.43 ± 0.29		
PFTKKRVGVDRAFPLKPMVHRKSC [ZC2HC1C]	3.4 ± 0.13	3.65 ± 0.1		
